Measured values from patent US20200199234A1 (published 2020).
Numbering of substitutions follows the chain as printed.

What was measured:
[1] = molecular target: T1, Hu N(A2-B2)A-avi-His, chimeric CEACAM1 protein with CEACAM5 domains A2 and B2 (human, biotinylated avi-tag (Example 2.2)); test: SPR ProteOn, biotinylated antigen on NLC chip
T1 construct: also called hu N(A2-B2)A-avi-His B; human CEA (A2 domain)
T1 chain: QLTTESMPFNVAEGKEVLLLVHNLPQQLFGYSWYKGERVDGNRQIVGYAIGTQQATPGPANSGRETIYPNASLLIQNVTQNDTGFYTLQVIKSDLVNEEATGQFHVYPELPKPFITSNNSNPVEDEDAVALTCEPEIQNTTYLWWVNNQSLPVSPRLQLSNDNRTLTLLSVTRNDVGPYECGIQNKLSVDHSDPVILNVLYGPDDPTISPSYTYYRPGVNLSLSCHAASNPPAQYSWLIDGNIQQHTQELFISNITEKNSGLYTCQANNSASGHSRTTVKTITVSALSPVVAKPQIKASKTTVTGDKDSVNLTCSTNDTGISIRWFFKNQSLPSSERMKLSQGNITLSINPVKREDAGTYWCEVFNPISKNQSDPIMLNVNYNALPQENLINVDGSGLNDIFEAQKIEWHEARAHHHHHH

N(A2B2)A-avi-His [2] = molecular target: T2, N(A2B2)A-avi-His (human, biotinylated avi-tag); test: SPR ProteOn, purified Fab
T2 construct: also called biotinylated N(A2B2)A-avi-His
T2 chain: T1 chain

[3] = molecular target: human CD28 expressed on cells (CHO-k1 stably overexpressing human CD28; T cells in functional assays) (human, UniProt P10747 19-220); test: cell-based or functional assay
[4] = molecular target: T3, huCD28-Fc, dimeric human CD28 extracellular domain fused to human IgG1 Fc (knob/hole, PG-LALA), monovalent … (human, UniProt P10747 19-152, biotin on C-terminal avi tag); test: from SPR KD values
T3 construct: also called biotinylated huCD28-Fc antigen; not shown: human IgG1 Fc fragment with hole and PG-LALA mutations; human IgG1 Fc fragment with knob and PG-LALA mutations

[5] = molecular target: T4, recombinant CD79b-His (Sinobiological #29750-H08H) (Homo sapiens (Human), UniProt P40259 29-159); test: SPR Biacore T200, CD79b-His captured by anti-penta-His
T4 construct: bought protein; also called soluble recombinant CD79b-His
T4 sequence: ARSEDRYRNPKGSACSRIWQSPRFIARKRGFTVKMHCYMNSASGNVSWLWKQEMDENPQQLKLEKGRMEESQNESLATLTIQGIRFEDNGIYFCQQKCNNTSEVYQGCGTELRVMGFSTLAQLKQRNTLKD

[6] = molecular target: T5, human HER3 on T-47D cells (human, UniProt P21860 20-1342); test: flow cytometry
T5 construct: also called ErbB3

N(A2B2)A-avi-His [7] = molecular target: T2, N(A2B2)A-avi-His; test: SPR ProteOn, purified bispecific IgG
[8] = molecular target: T6, human CEA (CEACAM5) expressed on cells (MKN45; MV3 engineered to express human CEACAM5) (human, UniProt P06731 35-685); test: flow cytometry on MV3 cells expressing CEA
T6 sequence: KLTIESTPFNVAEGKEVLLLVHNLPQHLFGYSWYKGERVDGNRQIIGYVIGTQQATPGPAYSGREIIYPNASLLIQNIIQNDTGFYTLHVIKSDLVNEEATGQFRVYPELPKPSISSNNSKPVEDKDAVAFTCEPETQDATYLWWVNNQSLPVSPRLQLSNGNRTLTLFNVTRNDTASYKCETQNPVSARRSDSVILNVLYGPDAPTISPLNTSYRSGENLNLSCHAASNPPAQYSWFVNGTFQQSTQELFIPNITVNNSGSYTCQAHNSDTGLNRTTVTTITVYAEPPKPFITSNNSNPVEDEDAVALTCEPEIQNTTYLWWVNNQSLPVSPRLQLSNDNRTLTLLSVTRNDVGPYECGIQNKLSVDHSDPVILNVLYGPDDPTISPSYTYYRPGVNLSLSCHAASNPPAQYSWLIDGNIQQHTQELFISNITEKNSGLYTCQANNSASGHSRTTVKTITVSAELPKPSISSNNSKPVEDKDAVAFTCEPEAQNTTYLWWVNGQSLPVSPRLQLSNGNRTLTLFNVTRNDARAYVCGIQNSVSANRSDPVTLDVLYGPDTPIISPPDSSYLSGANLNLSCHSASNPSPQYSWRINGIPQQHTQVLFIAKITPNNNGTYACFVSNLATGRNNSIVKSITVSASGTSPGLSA

B1: Molecule M: CEA-CD28(SA) 1+1 format (bispecific antibody, human IgG1, kappa, L234A L235A)
light 1: not shown
heavy 1: not shown
heavy 2: QAVLTQPASLSASPGASASLTCTLRRGINVGAYSIYWYQQKPGSPPQYLLRYKSDSDKQQGSGVSSRFSASKDASANAGILLISGLQSEDEADYYCMIWHSGASAVFGGGTKLTVLSSASTKGPSVFPLAPSSKSTSGGTAALGCLVKDYFPEPVTVSWNSGALTSGVHTFPAVLQSSGLYSLSSVVTVPSSSLGTQTYICNVNHKPSNTKVDKKVEPKSCDKTHTCPPCPAPEAAGGPSVFLFPPKPKDTLMISRTPEVTCVVVDVSHEDPEVKFNWYVDGVEVHNAKTKPREEQYNSTYRVVSVLTVLHQDWLNGKEYKCKVSNKALGAPIEKTISKAKGQPREPQVCTLPPSRDELTKNQVSLSCAVKGFYPSDIAVEWESNGQPENNYKTTPPVLDSDGSFFLVSKLTVDKSRWQQGNVFSCSVMHEALHNHYTQKSLSLSP
light 2: EVQLVESGGGLVQPGRSLRLSCAASGFTVSSYWMHWVRQAPGKGLEWVGFIRNKANGGTTEYAASVKGRFTISRDDSKNTLYLQMNSLRAEDTAVYYCARDRGLRFYFDYWGQGTTVTVSSASVAAPSVFIFPPSDEQLKSGTASVVCLLNNFYPREAKVQWKVDNALQSGNSQESVTEQDSKDSTYSLSSTLTLSKADYEKHKVYACEVTHQGLSSPVTKSFNRGEC
notes: anti-CEA arm is Medi-565; also called P1AE3127
Kd [1]: 0.29 nM

B2: P001.177 Fab fragment (Fab, V domains shown)
VH: EVQLLESGGGLVQPGGSLRLSCAASGFYFTDYYMNWVRQAPGKGLEWLGFISNKANAYTTEYSASVKGRFTISRDKSKNTLYLQMNSLRAEDTATYYCTRDRGLRFYFDYWGQGTTVTVSS
VL: EIVLTQSPATLSLSPGERATLSCRASSSVTYIHWYQQKPGQAPRSWIYATSNLASGIPARFSGSGSGTDFTLTISSLEPEDFAVYYCQHWSSKPPTFGQGTKLEIK
koff (N(A2B2)A-avi-His [2]): 0.000785 s⁻¹

B3: P005.102 Fab fragment (Fab, V domains shown)
VH: B2 VH with Y28T, S52G, L104I, Y107Q
VL: B2 VL with P94S
koff (N(A2B2)A-avi-His [2]): 0.000392 s⁻¹

B4: FAP (4B9) - CD28 (CD28(SA)_Variant 8) 1+1 (bispecific antibody, human IgG1, kappa, L234A L235A)
heavy 1: EIVLTQSPGTLSLSPGERATLSCRASQSVTSSYLAWYQQKPGQAPRLLINVGSRRATGIPDRFSGSGSGTDFTLTISRLEPEDFAVYYCQQGIMLPPTFGQGTKVEIKSSASTKGPSVFPLAPSSKSTSGGTAALGCLVKDYFPEPVTVSWNSGALTSGVHTFPAVLQSSGLYSLSSVVTVPSSSLGTQTYICNVNHKPSNTKVDKKVEPKSCDKTHTCPPCPAPEAAGGPSVFLFPPKPKDTLMISRTPEVTCVVVDVSHEDPEVKFNWYVDGVEVHNAKTKPREEQYNSTYRVVSVLTVLHQDWLNGKEYKCKVSNKALGAPIEKTISKAKGQPREPQVCTLPPSRDELTKNQVSLSCAVKGFYPSDIAVEWESNGQPENNYKTTPPVLDSDGSFFLVSKLTVDKSRWQQGNVFSCSVMHEALHNHYTQKSLSLSP
light 1: EVQLLESGGGLVQPGGSLRLSCAASGFTFSSYAMSWVRQAPGKGLEWVSAIIGSGASTYYADSVKGRFTISRDNSKNTLYLQMNSLRAEDTAVYYCAKGWFGGFNYWGQGTLVTVSSASVAAPSVFIFPPSDEQLKSGTASVVCLLNNFYPREAKVQWKVDNALQSGNSQESVTEQDSKDSTYSLSSTLTLSKADYEKHKVYACEVTHQGLSSPVTKSFNRGEC
heavy 2: not shown
light 2: not shown
notes: also called P1AE3131
EC50 killing (nM), TCB-mediated killing of MV3 target cells [3]: 2.33 nM
fold reduction of affinity compared to the parental CD28 clone [4]: ~20 fold

B5: Molecule 18F: CD79b (huMA79b.v28)-CD28 (SA v15) 1+1 (bispecific antibody, human IgG1, kappa, L234A L235A)
heavy 1: not shown
heavy 2: DIQLTQSPSSLSASVGDRVTITCKASQSVDYEGDSFLNWYQQKPGKAPKLLIYAASNLESGVPSRFSGSGSGTDFTLTISSLQPEDFATYYCQQSNEDPLTFGQGTKVEIKSSASTKGPSVFPLAPSSKSTSGGTAALGCLVKDYFPEPVTVSWNSGALTSGVHTFPAVLQSSGLYSLSSVVTVPSSSLGTQTYICNVNHKPSNTKVDKKVEPKSCDKTHTCPPCPAPEAAGGPSVFLFPPKPKDTLMISRTPEVTCVVVDVSHEDPEVKFNWYVDGVEVHNAKTKPREEQYNSTYRVVSVLTVLHQDWLNGKEYKCKVSNKALGAPIEKTISKAKGQPREPQVCTLPPSRDELTKNQVSLSCAVKGFYPSDIAVEWESNGQPENNYKTTPPVLDSDGSFFLVSKLTVDKSRWQQGNVFSCSVMHEALHNHYTQKSLSLSP
light 1: not shown
light 2: EVQLVESGGGLVQPGGSLRLSCAASGYTFSSYWIEWVRQAPGKGLEWIGEILPGGGDTNYNEIFKGRATFSADTSKNTAYLQMNSLRAEDTAVYYCTRRVPIRLDYWGQGTLVTVSSASVAAPSVFIFPPSDEQLKSGTASVVCLLNNFYPREAKVQWKVDNALQSGNSQESVTEQDSKDSTYSLSSTLTLSKADYEKHKVYACEVTHQGLSSPVTKSFNRGEC
notes: also called P1AE9039; CD79b-CD28
Kd [5]: 76 nM
koff [5]: 0.0195 s⁻¹
kon [5]: 257000 M⁻¹ s⁻¹

B6: Molecule 14B: HER3(lumretuzumab)-CD28 (SA_Variant 15) 1+1 format (bispecific antibody, human IgG1, kappa, L234A L235A)
heavy 1: not shown
light 1: not shown
heavy 2: DIVMTQSPDSLAVSLGERATINCKSSQSVLNSGNQKNYLTWYQQKPGQPPKLLIYWASTRESGVPDRFSGSGSGTDFTLTISSLQAEDVAVYYCQSDYSYPYTFGQGTKLEIKSSASTKGPSVFPLAPSSKSTSGGTAALGCLVKDYFPEPVTVSWNSGALTSGVHTFPAVLQSSGLYSLSSVVTVPSSSLGTQTYICNVNHKPSNTKVDKKVEPKSCDKTHTCPPCPAPEAAGGPSVFLFPPKPKDTLMISRTPEVTCVVVDVSHEDPEVKFNWYVDGVEVHNAKTKPREEQYNSTYRVVSVLTVLHQDWLNGKEYKCKVSNKALGAPIEKTISKAKGQPREPQVCTLPPSRDELTKNQVSLSCAVKGFYPSDIAVEWESNGQPENNYKTTPPVLDSDGSFFLVSKLTVDKSRWQQGNVFSCSVMHEALHNHYTQKSLSLSP
light 2: QVQLVQSGAEVKKPGASVKVSCKASGYTFRSSYISWVRQAPGQGLEWMGWIYAGTGSPSYNQKLQGRVTMTTDTSTSTAYMELRSLRSDDTAVYYCARHRDYYSNSLTYWGQGTLVTVSSASVAAPSVFIFPPSDEQLKSGTASVVCLLNNFYPREAKVQWKVDNALQSGNSQESVTEQDSKDSTYSLSSTLTLSKADYEKHKVYACEVTHQGLSSPVTKSFNRGEC
notes: also called P1AF0151; HER3-CD28
binding result [6]: binds

B7: CEA(P006.038-combo1)-CD28(SA_Variant 15) bispecific 1+1 IgG (bispecific antibody)
heavy 1: EIVLTQSPATLSLSPGERATLSCRASSSVTYIHWYQQKPGQAPRSWIYATSNLASGIPARFSGSGSGTDFTLTISSLEPEDFAVYYCQHWSSVPPTFGQGTKLEIKSSASTKGPSVFPLAPSSKSTSGGTAALGCLVKDYFPEPVTVSWNSGALTSGVHTFPAVLQSSGLYSLSSVVTVPSSSLGTQTYICNVNHKPSNTKVDKKVEPKSCDKTHTCPPCPAPEAAGGPSVFLFPPKPKDTLMISRTPEVTCVVVDVSHEDPEVKFNWYVDGVEVHNAKTKPREEQYNSTYRVVSVLTVLHQDWLNGKEYKCKVSNKALGAPIEKTISKAKGQPREPQVCTLPPSRDELTKNQVSLSCAVKGFYPSDIAVEWESNGQPENNYKTTPPVLDSDGSFFLVSKLTVDKSRWQQGNVFSCSVMHEALHNHYTQKSLSLSP
light 1: EVQLLESGGGLVQPGGSLRLSCAASGFYFTDYAMNWVRQAPGKGLEWLGVISNKANAYTTEYSASVKGRFTISRDKSKNTLYLQMNSLRAEDTATYYCTRDRGIRFGFDYWGQGTTVTVSSASVAAPSVFIFPPSDEQLKSGTASVVCLLNNFYPREAKVQWKVDNALQSGNSQESVTEQDSKDSTYSLSSTLTLSKADYEKHKVYACEVTHQGLSSPVTKSFNRGEC
heavy 2: not shown
light 2: not shown
koff (N(A2B2)A-avi-His [7]): 7.99e-05 s⁻¹

B8: Molecule 11R: CEA (P002.139)-CD28 (SA_Variant 15) 1+1 format (bispecific antibody)
heavy 1: B7 heavy 1 with R24H, V93K
light 1: B7 light 1 with I104L, G107Y
heavy 2: not shown
light 2: not shown
notes: also called P1AE8371
EC50 [8]: 4.1 nM
